Source: US20250099635A1, “IIMMUNOCONJUGATES COMPRISING KALLIKREIN RELATED PEPTIDASE 2 ANTIGEN BINDING DOMAINS AND THEIR USES” (Janssen Biotech, Inc., priority 2022, published 2025)

Target: soluble human kallikrein related peptidase 2 (hK2) protein (human) (UniProt P20151)
Assay: SPR; antibody captured by anti-Fc antibody, soluble hK2 injected; 1:1 Langmuir fit

Sequence of soluble human kallikrein related peptidase 2 (hK2) protein (human) (P20151 19-261): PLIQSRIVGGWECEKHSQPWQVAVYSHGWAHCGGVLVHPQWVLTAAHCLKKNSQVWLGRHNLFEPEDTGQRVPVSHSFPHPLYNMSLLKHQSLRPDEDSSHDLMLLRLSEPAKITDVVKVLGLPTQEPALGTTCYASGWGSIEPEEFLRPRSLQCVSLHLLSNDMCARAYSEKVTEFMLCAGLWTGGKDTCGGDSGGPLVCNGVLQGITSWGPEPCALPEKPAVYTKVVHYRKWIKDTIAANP

Row | Kd [nM] | Binder
1 | 0.7 to 1 | KL2B359 (scFv-LH-Fc) (Fc fusion, part only; not given: Fc part, part only) scFv, part: EIVLTQSPATLSLSPGERATLSCRASESVEYFGTSLMHWYQQKPGQPPRLLIYAASNVESGIPARFSGSGSGTDFTLTISSVEPEDFAVYFCQQTRKVPYTFGGGTKVEIKGGSEGKSSGSGSESKSTGGSQVQLQESGPGLVKPSQTLSLTCTVSGNSITSDYAWNWIRQFPGKRLEWIGYISYSGSTTYNPSLKSRVTISRDTSKNQFSLKLSSVTAADTAVYYCATGYYYGSGFWGQGTLVTVSS
2 | 34.3 | KL2B413 (scFv-LH-Fc) (Fc fusion, part only; not given: Fc part, part only) scFv, part: EIVLTQSPSFLSASVGDRVTITCRASQGISSYLSWYQQKPGKAPKLLIYATSTLQSGVPSRFSGSGSGTEFTLTISSLQPEDFATYYCQQLNSYPRTFGQGTKVEIKGGSEGKSSGSGSESKSTGGSEVQLVESGGGLVQPGGSLRLSCAASGFTFSSYWMTWVRQAPGKGLEWVANIKQDGSERYYVDSVKGRFTISRDNAKNSLYLQMNSLRAEDTAVYYCARDQNYDILTGHYGMDVWGQGTTVTVSS
